Here are results for nine molecules from patent US20230220042A1 (SHANGHAI JIAO TONG UNIVERSITY SCHOOL OF MEDICINE, published 2023).

Sequences and labels used below:
T1: Biotin-FcγRIIB (human FcγRIIB, Sino Biological) (human, UniProt P31994 43-217, limits assumed, biotin-labeled)
T1 construct: Used at 1 µg/ml with Streptavidin-APC for flow cytometry and sorting; also called CD32b
T1 sequence (looked up): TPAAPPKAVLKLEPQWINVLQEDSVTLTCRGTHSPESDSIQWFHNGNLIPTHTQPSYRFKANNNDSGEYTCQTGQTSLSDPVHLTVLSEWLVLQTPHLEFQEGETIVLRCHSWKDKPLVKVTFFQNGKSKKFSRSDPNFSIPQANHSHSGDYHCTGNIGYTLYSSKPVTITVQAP

B1: human IgG2 anti-mouse CD40 surface displayed antibody, G327A (antibody, name in EU numbering)
light chain (with the P2A rest): DTVLTQSPALAVSPGERVTISCRASDSVSTLMHWYQQKPGQQPKLLIYLASHLESGVPARFSGSGSGTDFTLTIDPVEADDTATYYCQQSWNDPWTFGGGTKLELKRTVAAPSVFIFPPSDEQLKSGTASVVCLLNNFYPREAKVQWKVDNALQSGNSQESVTEQDSKDSTYSLSSTLTLSKADYEKHKVYACEVTHQGLSSPVTKSFNRGECGSGATNFSLLKQAGDVEENPG
heavy chain: EVQLVESDGGLVQPGRSLKLPCAASGFTFSDYYMAWVRQAPTKGLEWVASISYDGSSTYYRDSVKGRFTISRDNAKSTLYLQMDSLRSEDTATYYCGRHSSYFDYWGQGVMVTVSSASTKGPSVFPLAPCSRSTSESTAALGCLVKDYFPEPVTVSWNSGALTSGVHTFPAVLQSSGLYSLSSVVTVPSSNFGTQTYTCNVDHKPSNTKVDKTVERKCCVECPPCPAPPVAGPSVFLFPPKPKDTLMISRTPEVTCVVVDVSHEDPEVQFNWYVDGVEVHNAKTKPREEQFNSTFRVVSVLTVVHQDWLNGKEYKCKVSNKALPAPIEKTISKTKGQPREPQVYTLPPSREEMTKNQVSLTCLVKGFYPSDIAVEWESNGQPENNYKTTPPMLDSDGSFFLYSKLTVDKSRWQQGNVFSCSVMHEALHNHYTQKSLSLSPGKLEPPPSTVSNMATVAVLVVLGAAIVTGAVVAFVMKMRRRNTGGKGGDYALAPGSQTSDLSLPDCKVMVHDPHSLA
notes: m1 with this Fc mutation (Eu numbering); copies: 2 + 2
B2: human IgG2 anti-mouse CD40 surface displayed antibody, G327A/A330R (antibody, name in EU numbering)
light chain (with the P2A rest): DTVLTQSPALAVSPGERVTISCRASDSVSTLMHWYQQKPGQQPKLLIYLASHLESGVPARFSGSGSGTDFTLTIDPVEADDTATYYCQQSWNDPWTFGGGTKLELKRTVAAPSVFIFPPSDEQLKSGTASVVCLLNNFYPREAKVQWKVDNALQSGNSQESVTEQDSKDSTYSLSSTLTLSKADYEKHKVYACEVTHQGLSSPVTKSFNRGECGSGATNFSLLKQAGDVEENPG
heavy chain: EVQLVESDGGLVQPGRSLKLPCAASGFTFSDYYMAWVRQAPTKGLEWVASISYDGSSTYYRDSVKGRFTISRDNAKSTLYLQMDSLRSEDTATYYCGRHSSYFDYWGQGVMVTVSSASTKGPSVFPLAPCSRSTSESTAALGCLVKDYFPEPVTVSWNSGALTSGVHTFPAVLQSSGLYSLSSVVTVPSSNFGTQTYTCNVDHKPSNTKVDKTVERKCCVECPPCPAPPVAGPSVFLFPPKPKDTLMISRTPEVTCVVVDVSHEDPEVQFNWYVDGVEVHNAKTKPREEQFNSTFRVVSVLTVVHQDWLNGKEYKCKVSNKALPRPIEKTISKTKGQPREPQVYTLPPSREEMTKNQVSLTCLVKGFYPSDIAVEWESNGQPENNYKTTPPMLDSDGSFFLYSKLTVDKSRWQQGNVFSCSVMHEALHNHYTQKSLSLSPGKLEPPPSTVSNMATVAVLVVLGAAIVTGAVVAFVMKMRRRNTGGKGGDYALAPGSQTSDLSLPDCKVMVHDPHSLA
notes: m1 with these Fc mutations (Eu numbering); copies: 2 + 2
B3: human IgG2 anti-mouse CD40 surface displayed antibody, G327A/I332A (antibody, name in EU numbering)
light chain (with the P2A rest): DTVLTQSPALAVSPGERVTISCRASDSVSTLMHWYQQKPGQQPKLLIYLASHLESGVPARFSGSGSGTDFTLTIDPVEADDTATYYCQQSWNDPWTFGGGTKLELKRTVAAPSVFIFPPSDEQLKSGTASVVCLLNNFYPREAKVQWKVDNALQSGNSQESVTEQDSKDSTYSLSSTLTLSKADYEKHKVYACEVTHQGLSSPVTKSFNRGECGSGATNFSLLKQAGDVEENPG
heavy chain: EVQLVESDGGLVQPGRSLKLPCAASGFTFSDYYMAWVRQAPTKGLEWVASISYDGSSTYYRDSVKGRFTISRDNAKSTLYLQMDSLRSEDTATYYCGRHSSYFDYWGQGVMVTVSSASTKGPSVFPLAPCSRSTSESTAALGCLVKDYFPEPVTVSWNSGALTSGVHTFPAVLQSSGLYSLSSVVTVPSSNFGTQTYTCNVDHKPSNTKVDKTVERKCCVECPPCPAPPVAGPSVFLFPPKPKDTLMISRTPEVTCVVVDVSHEDPEVQFNWYVDGVEVHNAKTKPREEQFNSTFRVVSVLTVVHQDWLNGKEYKCKVSNKALPAPAEKTISKTKGQPREPQVYTLPPSREEMTKNQVSLTCLVKGFYPSDIAVEWESNGQPENNYKTTPPMLDSDGSFFLYSKLTVDKSRWQQGNVFSCSVMHEALHNHYTQKSLSLSPGKLEPPPSTVSNMATVAVLVVLGAAIVTGAVVAFVMKMRRRNTGGKGGDYALAPGSQTSDLSLPDCKVMVHDPHSLA
notes: as for B2
B4: human IgG2 anti-mouse CD40 surface displayed antibody, G327A/I332C (antibody, name in EU numbering)
light chain (with the P2A rest): DTVLTQSPALAVSPGERVTISCRASDSVSTLMHWYQQKPGQQPKLLIYLASHLESGVPARFSGSGSGTDFTLTIDPVEADDTATYYCQQSWNDPWTFGGGTKLELKRTVAAPSVFIFPPSDEQLKSGTASVVCLLNNFYPREAKVQWKVDNALQSGNSQESVTEQDSKDSTYSLSSTLTLSKADYEKHKVYACEVTHQGLSSPVTKSFNRGECGSGATNFSLLKQAGDVEENPG
heavy chain: EVQLVESDGGLVQPGRSLKLPCAASGFTFSDYYMAWVRQAPTKGLEWVASISYDGSSTYYRDSVKGRFTISRDNAKSTLYLQMDSLRSEDTATYYCGRHSSYFDYWGQGVMVTVSSASTKGPSVFPLAPCSRSTSESTAALGCLVKDYFPEPVTVSWNSGALTSGVHTFPAVLQSSGLYSLSSVVTVPSSNFGTQTYTCNVDHKPSNTKVDKTVERKCCVECPPCPAPPVAGPSVFLFPPKPKDTLMISRTPEVTCVVVDVSHEDPEVQFNWYVDGVEVHNAKTKPREEQFNSTFRVVSVLTVVHQDWLNGKEYKCKVSNKALPAPCEKTISKTKGQPREPQVYTLPPSREEMTKNQVSLTCLVKGFYPSDIAVEWESNGQPENNYKTTPPMLDSDGSFFLYSKLTVDKSRWQQGNVFSCSVMHEALHNHYTQKSLSLSPGKLEPPPSTVSNMATVAVLVVLGAAIVTGAVVAFVMKMRRRNTGGKGGDYALAPGSQTSDLSLPDCKVMVHDPHSLA
notes: as for B2
B5: human IgG2 anti-mouse CD40 surface displayed antibody, G327A/I332E (antibody, name in EU numbering)
light chain (with the P2A rest): DTVLTQSPALAVSPGERVTISCRASDSVSTLMHWYQQKPGQQPKLLIYLASHLESGVPARFSGSGSGTDFTLTIDPVEADDTATYYCQQSWNDPWTFGGGTKLELKRTVAAPSVFIFPPSDEQLKSGTASVVCLLNNFYPREAKVQWKVDNALQSGNSQESVTEQDSKDSTYSLSSTLTLSKADYEKHKVYACEVTHQGLSSPVTKSFNRGECGSGATNFSLLKQAGDVEENPG
heavy chain: EVQLVESDGGLVQPGRSLKLPCAASGFTFSDYYMAWVRQAPTKGLEWVASISYDGSSTYYRDSVKGRFTISRDNAKSTLYLQMDSLRSEDTATYYCGRHSSYFDYWGQGVMVTVSSASTKGPSVFPLAPCSRSTSESTAALGCLVKDYFPEPVTVSWNSGALTSGVHTFPAVLQSSGLYSLSSVVTVPSSNFGTQTYTCNVDHKPSNTKVDKTVERKCCVECPPCPAPPVAGPSVFLFPPKPKDTLMISRTPEVTCVVVDVSHEDPEVQFNWYVDGVEVHNAKTKPREEQFNSTFRVVSVLTVVHQDWLNGKEYKCKVSNKALPAPEEKTISKTKGQPREPQVYTLPPSREEMTKNQVSLTCLVKGFYPSDIAVEWESNGQPENNYKTTPPMLDSDGSFFLYSKLTVDKSRWQQGNVFSCSVMHEALHNHYTQKSLSLSPGKLEPPPSTVSNMATVAVLVVLGAAIVTGAVVAFVMKMRRRNTGGKGGDYALAPGSQTSDLSLPDCKVMVHDPHSLA
notes: as for B2
B6: human IgG2 anti-mouse CD40 surface displayed antibody, G327A/A330V (antibody, name in EU numbering)
light chain (with the P2A rest): DTVLTQSPALAVSPGERVTISCRASDSVSTLMHWYQQKPGQQPKLLIYLASHLESGVPARFSGSGSGTDFTLTIDPVEADDTATYYCQQSWNDPWTFGGGTKLELKRTVAAPSVFIFPPSDEQLKSGTASVVCLLNNFYPREAKVQWKVDNALQSGNSQESVTEQDSKDSTYSLSSTLTLSKADYEKHKVYACEVTHQGLSSPVTKSFNRGECGSGATNFSLLKQAGDVEENPG
heavy chain: EVQLVESDGGLVQPGRSLKLPCAASGFTFSDYYMAWVRQAPTKGLEWVASISYDGSSTYYRDSVKGRFTISRDNAKSTLYLQMDSLRSEDTATYYCGRHSSYFDYWGQGVMVTVSSASTKGPSVFPLAPCSRSTSESTAALGCLVKDYFPEPVTVSWNSGALTSGVHTFPAVLQSSGLYSLSSVVTVPSSNFGTQTYTCNVDHKPSNTKVDKTVERKCCVECPPCPAPPVAGPSVFLFPPKPKDTLMISRTPEVTCVVVDVSHEDPEVQFNWYVDGVEVHNAKTKPREEQFNSTFRVVSVLTVVHQDWLNGKEYKCKVSNKALPVPIEKTISKTKGQPREPQVYTLPPSREEMTKNQVSLTCLVKGFYPSDIAVEWESNGQPENNYKTTPPMLDSDGSFFLYSKLTVDKSRWQQGNVFSCSVMHEALHNHYTQKSLSLSPGKLEPPPSTVSNMATVAVLVVLGAAIVTGAVVAFVMKMRRRNTGGKGGDYALAPGSQTSDLSLPDCKVMVHDPHSLA
notes: as for B2

In one assay the target is Biotin-FcγRIIB (human) (UniProt P31994). In words: NGS of 3T3 display library Cmix flow-sorted for FcγRIIB binding.
For the molecule “human IgG2 anti-mouse CD40 surface displayed antibody, P233F/V266L/S298L/L328W”, the enrichment factor, percentage after 2nd sorting/percentage after 1st sorting was 94.7; the enrichment factor, percentage after 3rd sorting/percentage after 2nd sorting worked out at 1.79; the percentage after 1st sorting was 0%; the percentage after 2nd sorting stood at 0.16%. In addition, the percentage after 3rd sorting came out at 0.29%.

Molecule “human IgG2 anti-mouse CD40 surface displayed antibody, V234M/S267E/S298L/L328W” showed an enrichment factor, percentage after 3rd sorting/percentage after 2nd sorting of 5.13; a percentage after 2nd sorting of 0.1%; a percentage after 3rd sorting of 0.53%.

In the case of “human IgG2 anti-mouse CD40 surface displayed antibody, A235W/V266L/S298L/L328W”, the enrichment factor, percentage after 2nd sorting/percentage after 1st sorting is 70.1; the enrichment factor, percentage after 3rd sorting/percentage after 2nd sorting worked out at 4.67; the percentage after 1st sorting was 0%; the percentage after 2nd sorting is 0.05%. The percentage after 3rd sorting amounted to 0.22%.

The next assay concerns the target T1, Biotin-FcγRIIB (human FcγRIIB, Sino …). Nature of the assay: NGS after FACS sort of 3T3-displayed Library4 for biotin-FcγRIIB binding.
In the case of B1, the “Enrichment factor (percentage after sorting/percentage before sorting)” value stood at 5.05 and the “Increased factor (enrichment factor/wild-type enrichment factor)” value is 3.38.

In the case of B2, the “Enrichment factor (percentage after sorting/percentage before sorting)” value turned out to be 98.3 and the “Increased factor (enrichment factor/wild-type enrichment factor)” value came out at 65.8.

B3: the “Enrichment factor (percentage after sorting/percentage before sorting)” value is 29.2 and the “Increased factor (enrichment factor/wild-type enrichment factor)” value was 19.5.

For the molecule B4, the “Enrichment factor (percentage after sorting/percentage before sorting)” value came to 11.4 and the “Increased factor (enrichment factor/wild-type enrichment factor)” value came to 7.64.

Consider B5, for which the “Enrichment factor (percentage after sorting/percentage before sorting)” value was determined as 126 and the “Increased factor (enrichment factor/wild-type enrichment factor)” value was 84.1.

Regarding B6, the “Enrichment factor (percentage after sorting/percentage before sorting)” value turned out to be 6.98 and the “Increased factor (enrichment factor/wild-type enrichment factor)” value was found to be 4.67.
